# From US20210340211A1 (UNIVERSITY OF COPENHAGEN, published 2021)
# Ends that are not written are not given here.
# B1: GIP(2-30)NH2 (peptide)
# peptide: AEGTFISDYSIAMDKIHQQDFVNWLLAQK-NH2
# notes: also called human GIP(2-30)NH2; hGIP(2-30)
# B2: GIP(3-30)NH2 (peptide)
# peptide: EGTFISDYSIAMDKIHQQDFVNWLLAQK-NH2
# notes: also called human GIP(3-30)NH2; hGIP(3-30)NH2
# B3: GIP(4-30)NH2 (peptide)
# peptide: GTFISDYSIAMDKIHQQDFVNWLLAQK-NH2
# notes: also called human GIP(4-30)NH2; hGIP4-30
# B4: GIP(5-30)NH2 (peptide)
# peptide: TFISDYSIAMDKIHQQDFVNWLLAQK-NH2
# notes: also called human GIP(5-30)NH2; hGIP5-30
# B5: GIP(6-30)NH2 (peptide)
# peptide: FISDYSIAMDKIHQQDFVNWLLAQK-NH2
# notes: also called human GIP(6-30)NH2; hGIP(6-30)
# B6: GIP(8-30)NH2 (peptide)
# peptide: SDYSIAMDKIHQQDFVNWLLAQK-NH2
# notes: also called human GIP(8-30)NH2; hGIP(8-30)
# B7: GIP(9-30)NH2 (peptide)
# peptide: DYSIAMDKIHQQDFVNWLLAQK-NH2
# notes: also called human GIP(9-30)NH2; hGIP(9-30)
# B8: human GIP(3-42) (peptide)
# peptide: EGTFISDYSIAMDKIHQQDFVNWLLAQKGKKNDWKHNITQ
# B9: hGIP(3-30) (peptide)
# peptide: EGTFISDYSIAMDKIHQQDFVNWLLAQK
# notes: also called human GIP3-30
# B10: hGIP(3-30)H18A (peptide)
# peptide: EGTFISDYSIAMDKIAQQDFVNWLLAQK
# notes: Synthetic variant of hGIP(3-30)
# B11: hGIP(3-30)H18K (peptide)
# peptide: EGTFISDYSIAMDKIKQQDFVNWLLAQK
# notes: as for B10
# B12: hGIP(3-30)D15EH18A (peptide)
# peptide: EGTFISDYSIAMEKIAQQDFVNWLLAQK
# B13: hGIP(3-30)K16AH18A (peptide)
# peptide: EGTFISDYSIAMDAIAQQDFVNWLLAQK
# B14: GIP(7-30)NH2 (peptide)
# peptide: ISDYSIAMDKIHQQDFVNWLLAQK-NH2
# notes: also called human GIP(7-30)NH2; hGIP(7-30)
# How the values were obtained:
# human GIP receptor [1] = biological target: T1, human GIP receptor (human, UniProt P48546 22-466); experiment: competition binding vs 125I-GIP(1-42), COS-7 cells transfected with human GIP receptor
# T1 construct: whole, on cells; also called hGIPR
# T1 sequence (looked up): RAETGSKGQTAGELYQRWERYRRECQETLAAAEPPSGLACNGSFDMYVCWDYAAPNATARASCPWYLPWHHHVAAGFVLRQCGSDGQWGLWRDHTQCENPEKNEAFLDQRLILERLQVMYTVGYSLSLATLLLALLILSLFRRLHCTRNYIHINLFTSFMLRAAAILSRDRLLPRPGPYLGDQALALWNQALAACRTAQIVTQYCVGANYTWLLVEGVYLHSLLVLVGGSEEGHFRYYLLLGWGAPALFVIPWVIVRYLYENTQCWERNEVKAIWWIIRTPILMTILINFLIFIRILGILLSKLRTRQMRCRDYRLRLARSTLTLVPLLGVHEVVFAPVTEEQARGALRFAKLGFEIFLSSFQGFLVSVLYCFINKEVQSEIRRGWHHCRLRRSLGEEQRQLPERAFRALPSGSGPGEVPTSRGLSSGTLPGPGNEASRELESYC
# Description: (§1) Nonspecific binding was determined as the binding of radioligand to untransfected cells. All determinations were made in duplicates, and all experiments repeated at least three times. The samples were analyzed for radioactivity using a Wallac Wizard 1470 Gamma Counter (GMI Inc., Minnesota, USA). The number “n” refers to individual experiments with separate transfections although from same cell line.
# (§2) Statistical analyses (unpaired t-tests) of two parameters were also performed with GraphPad Prism 6.0. […] Kd is the dissociation constant determined by homologous receptor binding.
# human GIP receptor [2] = biological target: T1, human GIP receptor; experiment: homologous competition binding vs 125I-GIP(2-30)NH2, COS-7 cells transfected with human GIP receptor
# Description: as §1
# human GIP receptor [3] = biological target: T1, human GIP receptor; experiment: competition binding vs 125I-GIP(3-30)NH2, COS-7 cells transfected with human GIP receptor
# Description: as §1, §2
# human GIP receptor [4] = biological target: T1, human GIP receptor; experiment: competition binding vs 125I-GIP(1-30)NH2, COS-7 cells transfected with human GIP receptor
# Description: as §1, §2
# human GIP receptor [5] = biological target: T1, human GIP receptor; experiment: cell-based or functional assay
# human GIP receptor [6] = biological target: T1, human GIP receptor; experiment: cell-based or functional assay; remark: listed apart in the source
# human GIP receptor [7] = biological target: T1, human GIP receptor; experiment: homologous competition binding vs 125I-GIP(3-30)NH2, COS-7 cells transfected with human GIP receptor
# Description: as §1
# human GIP receptor [8] = biological target: T1, human GIP receptor; experiment: competition binding vs 125I-GIP(2-30)NH2, COS-7 cells transfected with human GIP receptor
# Description: as §1, §2
# human GIP receptor [9] = biological target: T1, human GIP receptor; experiment: cell-based or functional assay; remark: listed apart in the source
# human GIP receptor [10] = biological target: T1, human GIP receptor; experiment: competition binding vs 125I-hGIP, COS-7 cells transfected with hGIPR
# Description: COS-7 cells were seeded in clear 96-well plates the day after transfection using a number of cells/well that obtained 5-10% specific binding of the added radioactive ligand. […] After incubation, the cells were washed twice in ice-cold binding buffer and lysed using 200 mM NaOH with 1% SDS for 30 min. Nonspecific binding was determined as the binding of tracer to untransfected cells.
Binder,Ki (human GIP receptor [1]),fold change of GIP(1-30)NH2 affinity (human GIP receptor [1]),logIC (human GIP receptor [1]),IC50 (inhibition of GIP(1-42) induced cAMP accumulation) (human GIP receptor [5]),logIC50 (inhibition of GIP(1-42) induced cAMP accumulation) (human GIP receptor [5]),"Ki (Schild plot, cAMP accumulation) (human GIP receptor [9])",further results
B1,14.3 nM,16 fold,-7.85,21.7 nM,-7.66,–,"IC50 (human GIP receptor [2]): 2.7 nM; fold change GIP(1-30)NH2 (human GIP receptor [2]): 10.5 fold; log (IC50) (human GIP receptor [2]): -8.57; IC50 (human GIP receptor [3]): 7.7 nM; fold change GIP(1-30)NH2 (human GIP receptor [3]): 4.6 fold; log (IC50) (human GIP receptor [3]): -8.11; IC50 (human GIP receptor [4]): 26 nM; fold change GIP(1-30)NH2 (human GIP receptor [4]): 84.3 fold; log (IC50) (human GIP receptor [4]): -7.59; fold lower potency than GIP(1-30)NH2 (cAMP accumulation) (human GIP receptor [6]): > 3000 fold; log EC50 (cAMP accumulation) (human GIP receptor [6]): -8.43; potency, EC50 (cAMP accumulation) (human GIP receptor [6]): 3.7 nM"
B2,2.3 nM,2.6 fold,-8.63,11.8 nM,-7.93,–,fold decrease in affinity compared to GIP(1-30)NH2 (human GIP receptor [1]): 2.3 fold; IC50 (human GIP receptor [4]): 4.4 nM; fold change GIP(1-30)NH2 (human GIP receptor [4]): 14.5 fold; log (IC50) (human GIP receptor [4]): -8.35; fold shift in the dose-response curve of human GIP(1-42) by 1 µM antagonist (human GIP receptor [6]): 281 fold; IC50 (human GIP receptor [7]): 3.4 nM; fold change GIP(1-30)NH2 (human GIP receptor [7]): 2 fold; log (IC50) (human GIP receptor [7]): -8.47; IC50 (human GIP receptor [8]): 0.76 nM; fold change GIP(1-30)NH2 (human GIP receptor [8]): 1.6 fold; log (IC50) (human GIP receptor [8]): -9.12
B3,21.5 nM,24 fold,-7.67,108 nM,-6.97,–,–
B4,5.9 nM,6.6 fold,-8.23,11.9 nM,-7.92,–,–
B5,347 nM,391 fold,-6.46,342 nM,-6.47,–,fold decrease in affinity compared to GIP(1-30)NH2 (human GIP receptor [1]): 347 fold; fold lower affinity compared to GIP(1-30)NH2 (human GIP receptor [1]): > 300 fold; IC50 (human GIP receptor [3]): 370 nM; fold change GIP(1-30)NH2 (human GIP receptor [3]): 223 fold; log (IC50) (human GIP receptor [3]): -6.43; IC50 (human GIP receptor [4]): 1060 nM; fold change GIP(1-30)NH2 (human GIP receptor [4]): 3500 fold; log (IC50) (human GIP receptor [4]): -5.97; IC50 (human GIP receptor [8]): 340 nM; fold change GIP(1-30)NH2 (human GIP receptor [8]): 707 fold; log (IC50) (human GIP receptor [8]): -6.47
B6,79 nM,89 fold,-7.1,133 nM,-6.88,–,–
B7,307 nM,345 fold,-6.51,450 nM,-6.35,–,fold lower affinity compared to GIP(1-30)NH2 (human GIP receptor [1]): > 300 fold; right-shift of antagonistic potency compared to GIP(3-30)NH2 (human GIP receptor [6]): 38 fold
B8,–,–,–,–,–,–,fold lower antagonistic potency than human GIP(3-30)NH2 (cAMP accumulation) (human GIP receptor [6]): 26 fold; fold shift in the dose-response curve of human GIP(1-42) by 1 µM antagonist (human GIP receptor [6]): 7.3 fold
B9,–,–,–,–,–,15 nM,IC50 (human GIP receptor [10]): 16 nM
B10,–,–,–,–,–,35 nM,IC50 (human GIP receptor [10]): 2 nM
B11,–,–,–,–,–,37 nM,IC50 (human GIP receptor [10]): 7.8 nM
B12,–,–,–,–,–,7.9 nM,–
B13,–,–,–,–,–,15 nM,–
B14,–,–,-7.58,–,–,–,–
